The test system of this data set is PARP (endogenous, MDA-MB-231 cells) (Homo sapiens). Put plainly: cell_activity. As to conditions: cholesterol-conjugated, HEG loop, 5 uM, 48 h.

Regarding “CCCAGCAAACAAGCCT (double strand) [OX401]”, the activity (% PARylated cells) (3 PS linkages on each strand, PARP activation weaker than OX413) was found to be 20.

“CCCAGCAAACAAGCCT (double strand) [OX413]” came in with an activity (% PARylated cells) (FANA (2'-deoxy-2'-fluoroarabino) nucleotides and PS linkages (positions only in images), PARP activation) greater than 40.

The values above are taken from patent publication US20240294926.
